This is an account of results in patent US20160168251A1 (MorphoSys, published 2016).

For test [1], the target named is T1, human NPRB on HEK293 cells in the presence of CNP (human, UniProt P20594 23-1047; P23582 105-126).
T1 construct: whole, on cells;mature; also called HEK NPRB cells + 100 nM CNP
In words: FACS, HEK NPRB cells with 100 nM CNP. (In general: In flow cytometry, cells or beads pass a laser one at a time.)
Description: HEK NPRA cells are detached with Accutase (PAA Laboratories GmbH, Cat. No. L11-007, Austria), harvested by centrifugation (900 rpm, 4 minutes) and resuspended in FACS buffer (PBS/3% FCS/0.02% NaN3) to a final concentration of 10⁶ cells/ml. 100 μl of the cell suspension is transferred to each well of a 96 round bottom plate (TC Microwell 96U, Nunc). […] Cells are washed in 150 μl of FACS buffer, pelleted and resuspended in 50 μl of the solution containing the primary antibody comprising a BEL extract of Fabs, a diluted BEL extract or purified antibody diluted in FACS buffer and incubated on ice for 30 min. Cells are washed again in FACS buffer and resuspended in 50 μl of FACS buffer containing the secondary antibody (R-Phycoerythrin-conjugated Affipure F(ab′)₂ Fragment Goat Anti-Human IgG, Dianova) and incubated on ice for 45 min. Cells are washed twice with FACS buffer and resuspended in 200 μl of FACS buffer for analysis in the FACS Array (BD Biosciences).

The target in test [2] is T2, rat NPRA on HEK cells bound to ANP (rat, UniProt P18910 29-1057; P01161 123-150).
T2 construct: whole, on cells;mature; also called HEK293T-GCA
T2 sequence (looked up): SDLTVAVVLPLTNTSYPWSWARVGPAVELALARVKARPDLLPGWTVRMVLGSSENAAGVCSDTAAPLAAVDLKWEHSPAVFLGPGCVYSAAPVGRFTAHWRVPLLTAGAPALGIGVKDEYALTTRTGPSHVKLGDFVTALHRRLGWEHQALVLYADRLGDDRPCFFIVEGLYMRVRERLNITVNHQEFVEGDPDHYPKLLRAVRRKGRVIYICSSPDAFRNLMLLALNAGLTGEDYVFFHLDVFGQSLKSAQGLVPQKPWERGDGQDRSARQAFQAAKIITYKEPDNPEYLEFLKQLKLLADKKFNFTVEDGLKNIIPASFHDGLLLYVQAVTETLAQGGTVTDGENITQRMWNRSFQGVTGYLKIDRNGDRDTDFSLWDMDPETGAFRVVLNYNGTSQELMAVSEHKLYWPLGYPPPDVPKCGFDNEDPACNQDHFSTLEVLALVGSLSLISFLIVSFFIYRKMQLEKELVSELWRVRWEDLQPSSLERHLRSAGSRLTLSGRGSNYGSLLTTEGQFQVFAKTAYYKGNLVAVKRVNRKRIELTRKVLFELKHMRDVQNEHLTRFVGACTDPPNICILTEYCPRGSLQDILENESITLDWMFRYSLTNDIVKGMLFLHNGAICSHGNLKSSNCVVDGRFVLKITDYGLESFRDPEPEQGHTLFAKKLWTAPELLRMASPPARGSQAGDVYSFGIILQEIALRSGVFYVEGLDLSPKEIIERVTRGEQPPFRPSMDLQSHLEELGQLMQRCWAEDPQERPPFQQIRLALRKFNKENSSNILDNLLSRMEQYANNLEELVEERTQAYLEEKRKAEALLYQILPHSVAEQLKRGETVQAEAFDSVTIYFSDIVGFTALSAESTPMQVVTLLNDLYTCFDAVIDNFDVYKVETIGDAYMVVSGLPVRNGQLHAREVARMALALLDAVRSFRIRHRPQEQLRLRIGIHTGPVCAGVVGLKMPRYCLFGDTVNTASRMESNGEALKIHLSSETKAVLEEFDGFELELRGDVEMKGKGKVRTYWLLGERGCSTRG
T2 sequence (peptide, looked up): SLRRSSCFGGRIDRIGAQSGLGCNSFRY
The experiment in a line: KinExA whole cell binding (Kd,app), HEK cells with rat NPRA, ANP bound.

T1 sequence (P20594 23-1047 limits assumed, chain 1 of 2): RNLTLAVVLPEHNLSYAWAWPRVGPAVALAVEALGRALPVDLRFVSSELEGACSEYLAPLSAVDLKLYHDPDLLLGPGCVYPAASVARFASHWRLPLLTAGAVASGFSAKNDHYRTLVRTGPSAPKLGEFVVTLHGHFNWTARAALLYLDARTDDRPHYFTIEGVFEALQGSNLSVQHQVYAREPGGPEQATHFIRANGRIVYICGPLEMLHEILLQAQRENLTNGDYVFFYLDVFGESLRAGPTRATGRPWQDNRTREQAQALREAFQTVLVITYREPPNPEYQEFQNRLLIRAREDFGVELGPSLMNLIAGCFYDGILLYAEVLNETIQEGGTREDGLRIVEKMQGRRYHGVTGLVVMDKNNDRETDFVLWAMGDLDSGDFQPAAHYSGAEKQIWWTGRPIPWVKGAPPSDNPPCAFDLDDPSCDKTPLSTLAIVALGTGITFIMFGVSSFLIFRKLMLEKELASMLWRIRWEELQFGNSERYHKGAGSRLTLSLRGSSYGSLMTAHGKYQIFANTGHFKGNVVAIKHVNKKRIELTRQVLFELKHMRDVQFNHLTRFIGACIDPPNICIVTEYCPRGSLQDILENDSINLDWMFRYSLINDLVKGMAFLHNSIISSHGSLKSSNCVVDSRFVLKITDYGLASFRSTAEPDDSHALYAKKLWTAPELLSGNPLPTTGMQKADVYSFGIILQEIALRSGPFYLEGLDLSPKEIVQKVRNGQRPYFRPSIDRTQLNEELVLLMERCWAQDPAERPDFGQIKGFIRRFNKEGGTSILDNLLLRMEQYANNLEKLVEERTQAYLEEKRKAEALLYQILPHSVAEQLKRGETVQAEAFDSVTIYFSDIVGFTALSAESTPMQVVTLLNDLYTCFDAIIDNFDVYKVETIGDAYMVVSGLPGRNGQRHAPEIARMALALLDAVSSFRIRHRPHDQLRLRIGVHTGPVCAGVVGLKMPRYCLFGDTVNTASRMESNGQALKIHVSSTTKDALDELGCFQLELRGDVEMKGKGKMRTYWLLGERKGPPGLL
T1 sequence (P23582 105-126 limits assumed, chain 2 of 2): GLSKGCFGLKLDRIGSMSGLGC

B1: 5502 IgG4_Pro (antibody, V domains shown)
VH: QVQLQQSGPGLVKPSQTLSLTCAISGDSVSSRSASWSWIRQSPGRGLEWLGRIYYRSKWYNDYAVSVKSRITINPDTSKNQFSLQLNSVTPEDTAVYYCARMDVPSFRYFDVWGQGTLVTVSS
VL: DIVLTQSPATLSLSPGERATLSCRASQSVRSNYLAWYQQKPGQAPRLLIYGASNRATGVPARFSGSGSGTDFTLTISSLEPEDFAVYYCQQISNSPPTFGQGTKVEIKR
notes: Human IgG4_Pro
For the molecule B1, in test [1], the binding result is on record as “no binding (tested: 20 nM)”.

B2: 5591 IgG4_Pro (antibody, V domains shown)
VH: QVQLQQSGPGLVKPSQTLSLTCAISGDSVSSRSASWSWIRQSPGRGLEWLGRTYYRSHWYYEYAQSVKSRITINPDTSKNQFSLQLNSVTPEDTAVYYCARMDVPSFRYFDVWGQGTLVTVSS
VL: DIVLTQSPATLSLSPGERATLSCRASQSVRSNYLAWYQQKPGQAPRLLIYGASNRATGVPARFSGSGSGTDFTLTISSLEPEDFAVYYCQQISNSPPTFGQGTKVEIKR
B2: the Kd in test [2] came out at 0.013 nM.
